The text below walks through data of patent publication US20260071002A1 (Hoffmann-La Roche, published 2026).

Numbering of substitutions follows the chain as printed.

Sequences and labels used below:
B1: P1AI5015 (antibody, human IgG1, V domains shown)
VH: EVQLVESGGGLVQPGGSLRLSCAASGFNIKDTYMHWVRQAPGKGLEWVGRIDPANGNSKYADSVKGRFTISADTSKNTAYLQMNSLRAEDTAVYYCAPFGYYVSDYAMAYWGQGTTVTVSS
VL: EIVLTQSPATLSLSPGERATLSCRAGESVDIFGVGFLHWYQQKPGQAPRLLIYRGSNRATGIPARFSGSGSGTDFTLTISSLEPEDFAVYYCQQTYEYPYTFGQGTKLEIK
B2: P1AI5016 (antibody, human IgG1, V domains shown)
VH: B1 VH
VL: B1 VL with Y96V
B3: P1AI5018 (antibody, human IgG1, V domains shown)
VH: B1 VH
VL: B1 VL with Y96T
B4: P1AI5031 (antibody, human IgG1, V domains shown)
VH: B1 VH
VL: B1 VL with A59M, Y96N, Y98D
notes: also called 24_A55M
B5: P1AI5017 (antibody, human IgG1, V domains shown)
VH: B1 VH
VL: B1 VL with Y96S
B6: P1AI5014 (antibody, human IgG1, V domains shown)
VH: B1 VH
VL: B1 VL with Y96N, Y98D

The first test has as its target T1, human CEACAM1 (human, UniProt P13688 35-526).
T1 construct: whole, on cells; also called CHO-CEACAM1
T1 sequence (looked up): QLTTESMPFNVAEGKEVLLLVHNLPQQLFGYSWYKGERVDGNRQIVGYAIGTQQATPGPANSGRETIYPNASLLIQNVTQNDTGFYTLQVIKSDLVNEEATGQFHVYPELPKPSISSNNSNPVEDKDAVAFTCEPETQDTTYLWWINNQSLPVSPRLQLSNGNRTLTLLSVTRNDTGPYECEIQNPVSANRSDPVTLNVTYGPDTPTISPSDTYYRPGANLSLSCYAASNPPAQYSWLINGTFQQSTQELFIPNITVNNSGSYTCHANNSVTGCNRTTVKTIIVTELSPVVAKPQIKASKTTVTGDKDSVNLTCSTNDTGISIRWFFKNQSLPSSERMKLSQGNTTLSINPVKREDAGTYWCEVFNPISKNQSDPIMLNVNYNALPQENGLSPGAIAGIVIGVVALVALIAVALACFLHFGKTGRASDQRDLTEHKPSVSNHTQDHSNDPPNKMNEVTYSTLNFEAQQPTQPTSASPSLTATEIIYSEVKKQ
Briefly: FACS on CHO cells overexpressing human CEACAM1. How it is done: (§1) Viability of CHO-CEACAM1 (CHO cells overexpressing human CEACAM1) and CHO-CEACAM6 (CHO cells overexpressing human CEACAM6) cells was checked. Then 100 μl of re-suspended target cells were seeded into a U-bottom plate (100′000 cells/well). The antibodies were diluted in FACS buffer. The plates were centrifuged for 4 min at 400×g and supernatant was removed. Then 25 µl/well of the diluted antibodies were added to the cells. The cells were incubated for 45 min at 4° C. After the incubation, cells were washed twice and 25 μl/well of diluted (1/100 in FACS buffer) PE anti-human Fc secondary antibody (Jackson Immuno Research, #109-116-170) or the directly labeled CD66 antibody (Clone B1.1/CD66, BD Bioscience, #551480) was added to the cells. The cells were incubated for 45 min at 4° C. After the incubation, cells were washed twice. Then cells were re-suspended in 150 μl/well of FACS buffer. Cell binding was measured on the BD LSRFortessa Flow Cytometer, the same day.
Turning to B1, the binding result is listed as “no binding”.
As for B2, the binding result is “no binding”.
Same read-out and setting: as for B3, the entry is “no binding”; as for B4, “no binding”.
Turning to B5, the binding result is given as “no binding”.
For the molecule B6, the binding result is given as “no binding”.

The next test deals with T2, human CEACAM6 (human, UniProt P40199 35-320).
T2 construct: whole, on cells; also called CHO-CEACAM6
T2 sequence (looked up): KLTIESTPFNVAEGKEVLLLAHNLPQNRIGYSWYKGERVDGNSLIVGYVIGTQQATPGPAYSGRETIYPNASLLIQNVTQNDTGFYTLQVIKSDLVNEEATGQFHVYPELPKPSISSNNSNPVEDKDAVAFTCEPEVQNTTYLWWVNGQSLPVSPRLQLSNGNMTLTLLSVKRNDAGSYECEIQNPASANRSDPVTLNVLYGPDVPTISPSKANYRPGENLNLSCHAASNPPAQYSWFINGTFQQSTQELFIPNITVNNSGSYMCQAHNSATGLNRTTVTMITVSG
Briefly: FACS on CHO cells overexpressing human CEACAM6. The procedure: as §1
With B1, the binding result was “no binding”.
Same read-out and setting: in the case of B2 it was “no binding”.
With B3, the binding result is “no binding”.
On the same count and under the same terms, as for B4, the entry is “no binding”; as for B5, “no binding”.
With B6, the binding result is reported as “no binding”.

The target in the next test is T3, human CEACAM5 (human, UniProt P06731 35-685).
T3 construct: whole, on cells; Target on MKN-45 (DSMZ ACC409) and LS180 (ATCC CL-187) cells; also called carcinoembryonic antigen-related cell adhesion molecule 5; CD66e
T3 sequence (looked up): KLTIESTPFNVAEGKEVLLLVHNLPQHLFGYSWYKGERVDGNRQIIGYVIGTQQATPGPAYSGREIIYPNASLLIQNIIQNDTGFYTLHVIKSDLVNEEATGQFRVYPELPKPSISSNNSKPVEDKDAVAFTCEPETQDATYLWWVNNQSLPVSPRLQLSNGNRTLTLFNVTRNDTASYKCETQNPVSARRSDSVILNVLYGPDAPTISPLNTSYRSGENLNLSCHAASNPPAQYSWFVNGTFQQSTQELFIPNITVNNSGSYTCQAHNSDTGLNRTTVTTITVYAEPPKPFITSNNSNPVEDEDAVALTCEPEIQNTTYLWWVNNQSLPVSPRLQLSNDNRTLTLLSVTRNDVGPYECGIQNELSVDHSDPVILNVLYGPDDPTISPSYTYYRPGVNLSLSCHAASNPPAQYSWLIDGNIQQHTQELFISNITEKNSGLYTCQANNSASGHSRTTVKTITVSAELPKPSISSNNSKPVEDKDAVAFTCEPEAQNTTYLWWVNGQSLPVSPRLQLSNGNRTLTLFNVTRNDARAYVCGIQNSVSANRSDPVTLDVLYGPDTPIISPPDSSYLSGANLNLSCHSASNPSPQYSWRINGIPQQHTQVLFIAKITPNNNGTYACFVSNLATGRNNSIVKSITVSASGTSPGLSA
Briefly: FACS on MKN-45 cells expressing human CEACAM5. How it is done: 10 μl of a 1×10⁴ MKN-45 (DSMZ ACC409) cell suspension in assay buffer was seeded in all Wells of a 384 well polypropylene plate (Weidmann #23490-101). Then 10 μl of antibodies diluted in assay buffer (double concentrated), at a start concentration of 100 μg/ml, serially diluted 1:4 were added to the plate. After 90 minutes incubation at 4° C., 60 μl assay buffer was added followed by a centrifuge step (330×g, 5 min) and an aspirating step (BioTek washer 405H) where 60 μl of supernatant were discarded. 20 μl of detection antibody (Alpaca anti rabbit IgG Chromotek #srbAF647-1) diluted in assay buffer (double concentrated) to a final concentration of 0.5 μg/ml was added to all Wells followed by 1 hour incubation time at room temperature. The cells were then subjected to two washing steps with 40 μl and 60 μl assay buffer as described above and then resuspended in 20 μl assay buffer. Cell binding was measured on an iQue Screener Plus high throughput FACS device from Sartorius/Intellicyt.
For orientation: EC50 means the concentration that produces a half-maximal response. A low value points to higher potency in that assay. The molecule B1 yielded an EC50 of 0.483 µg/mL.
Same read-out and setting: as for B2, the figure is 0.588 µg/mL; as for B3, 0.65 µg/mL.
As to B4, a half-maximal effect (EC50) was put at 2.42 µg/mL.
In the case of B5, the response was half-maximal at 0.762 µg/mL (EC50).
In the case of B6, the EC50 was found to be 1.53 µg/mL. Compared with the last molecule, the EC50 is about 2-fold higher.
